How the values were obtained:
[1] = substrate: N=C(N)NCCC[C@H](N)C(=O)O
[2] = substrate: N=C(N)NCCC[C@H](N)C(=O)O; remark: listed apart in the source

Protein | Km [1] | Km [2]
Nitric oxide synthase 1 (Homo sapiens), P29475 (protein) MEDHMFGVQQIQPNVISVRLFKRKVGGLGFLVKERVSKPPVIISDLIRGGAAEQSGLIQAGDIILAVNGRPLVDLSYDSALEVLRGIASETHVVLILRGPEGFTTHLETTFTGDGTPKTIRVTQPLGPPTKAVDLSHQPPAGKEQPLAVDGASGPGNGPQHAYDDGQEAGSLPHANGLAPRPPGQDPAKKATRVSLQGRGENNELLKEIEPVLSLLTSGSRGVKGGAPAKAEMKDMGIQVDRDLDGKSHKPLPLGVENDRVFNDLWGKGNVPVVLNNPYSEKEQPPTSGKQSPTKNGSPSKCPRFLKVKNWETEVVLTDTLHLKSTLETGCTEYICMGSIMHPSQHARRPEDVRTKGQLFPLAKEFIDQYYSSIKRFGSKAHMERLEEVNKEIDTTSTYQLKDTELIYGAKHAWRNASRCVGRIQWSKLQVFDARDCTTAHGMFNYICNHVKYATNKGNLRSAITIFPQRTDGKHDFRVWNSQLIRYAGYKQPDGSTLGDPANVQFTEICIQQGWKPPRGRFDVLPLLLQANGNDPELFQIPPELVLEVPIRHPKFEWFKDLGLKWYGLPAVSNMLLEIGGLEFSACPFSGWYMGTEIGVRDYCDNSRYNILEEVAKKMNLDMRKTSSLWKDQALVEINIAVLYSFQSDKVTIVDHHSATESFIKHMENEYRCRGGCPADWVWIVPPMSGSITPVFHQEMLNYRLTPSFEYQPDPWNTHVWKGTNGTPTKRRAIGFKKLAEAVKFSAKLMGQAMAKRVKATILYATETGKSQAYAKTLCEIFKHAFDAKVMSMEEYDIVHLEHETLVLVVTSTFGNGDPPENGEKFGCALMEMRHPNSVQEERKSYKVRFNSVSSYSDSQKSSGDGPDLRDNFESAGPLANVRFSVFGLGSRAYPHFCAFGHAVDTLLEELGGERILKMREGDELCGQEEAFRTWAKKVFKAACDVFCVGDDVNIEKANNSLISNDRSWKRNKFRLTFVAEAPELTQGLSNVHKKRVSAARLLSRQNLQSPKSSRSTIFVRLHTNGSQELQYQPGDHLGVFPGNHEDLVNALIERLEDAPPVNQMVKVELLEERNTALGVISNWTDELRLPPCTIFQAFKYYLDITTPPTPLQLQQFASLATSEKEKQRLLVLSKGLQEYEEWKWGKNPTIVEVLEEFPSIQMPATLLLTQLSLLQPRYYSISSSPDMYPDEVHLTVAIVSYRTRDGEGPIHHGVCSSWLNRIQADELVPCFVRGAPSFHLPRNPQVPCILVGPGTGIAPFRSFWQQRQFDIQHKGMNPCPMVLVFGCRQSKIDHIYREETLQAKNKGVFRELYTAYSREPDKPKKYVQDILQEQLAESVYRALKEQGGHIYVCGDVTMAADVLKAIQRIMTQQGKLSAEDAGVFISRMRDDNRYHEDIFGVTLRTYEVTNRLRSESIAFIEESKKDTDEVFSS | 1.6 µM | 
Nitric oxide synthase 3 (Homo sapiens), P29474 (protein) MGNLKSVAQEPGPPCGLGLGLGLGLCGKQGPATPAPEPSRAPASLLPPAPEHSPPSSPLTQPPEGPKFPRVKNWEVGSITYDTLSAQAQQDGPCTPRRCLGSLVFPRKLQGRPSPGPPAPEQLLSQARDFINQYYSSIKRSGSQAHEQRLQEVEAEVAATGTYQLRESELVFGAKQAWRNAPRCVGRIQWGKLQVFDARDCRSAQEMFTYICNHIKYATNRGNLRSAITVFPQRCPGRGDFRIWNSQLVRYAGYRQQDGSVRGDPANVEITELCIQHGWTPGNGRFDVLPLLLQAPDDPPELFLLPPELVLEVPLEHPTLEWFAALGLRWYALPAVSNMLLEIGGLEFPAAPFSGWYMSTEIGTRNLCDPHRYNILEDVAVCMDLDTRTTSSLWKDKAAVEINVAVLHSYQLAKVTIVDHHAATASFMKHLENEQKARGGCPADWAWIVPPISGSLTPVFHQEMVNYFLSPAFRYQPDPWKGSAAKGTGITRKKTFKEVANAVKISASLMGTVMAKRVKATILYGSETGRAQSYAQQLGRLFRKAFDPRVLCMDEYDVVSLEHETLVLVVTSTFGNGDPPENGESFAAALMEMSGPYNSSPRPEQHKSYKIRFNSISCSDPLVSSWRRKRKESSNTDSAGALGTLRFCVFGLGSRAYPHFCAFARAVDTRLEELGGERLLQLGQGDELCGQEEAFRGWAQAAFQAACETFCVGEDAKAAARDIFSPKRSWKRQRYRLSAQAEGLQLLPGLIHVHRRKMFQATIRSVENLQSSKSTRATILVRLDTGGQEGLQYQPGDHIGVCPPNRPGLVEALLSRVEDPPAPTEPVAVEQLEKGSPGGPPPGWVRDPRLPPCTLRQALTFFLDITSPPSPQLLRLLSTLAEEPREQQELEALSQDPRRYEEWKWFRCPTLLEVLEQFPSVALPAPLLLTQLPLLQPRYYSVSSAPSTHPGEIHLTVAVLAYRTQDGLGPLHYGVCSTWLSQLKPGDPVPCFIRGAPSFRLPPDPSLPCILVGPGTGIAPFRGFWQERLHDIESKGLQPTPMTLVFGCRCSQLDHLYRDEVQNAQQRGVFGRVLTAFSREPDNPKTYVQDILRTELAAEVHRVLCLERGHMFVCGDVTMATNVLQTVQRILATEGDMELDEAGDVIGVLRDQQRYHEDIFGLTLRTQEVTSRIRTQSFSLQERQLRGAVPWAFDPPGSDTNSP |  | 0.9 µM

From ChEMBL document CHEMBL1130474, “Conformationally restricted arginine analogues as inhibitors of human nitric oxide synthase” (Bioorg Med Chem Lett, 1997)
